Where two headings read alike, the source gives them in different places.
How the values were obtained:
[1] = system: HHH peptide (biotinylated histidine trimer) (synthetic); conditions: quantum dot multivalent probe
[2] = system: HHH peptide (biotinylated histidine trimer) (synthetic)

## CAAGCAGAAGACGGCATACGAGATCATGCTTCCCCAGGGAGATGGTTTGCCGGTGGGCAGGTTTAGGGTCTGCTCGGGATTGCGGAGGAACATGCGTCGCAAACGTGTAGATCTCGGTGGTCGCCGTATCATT [P7-B1-P5 aptamer]
[1]
  EC50: 60 nM
[2]; single aptamer on SureLight APC
  EC50: 2.3 nM
[2]; single aptamer on streptavidin-APC
  EC50: 29.9 nM
[2]; single aptamer on streptavidin-Alexa Fluor 647
  EC50: 28 nM

— patent publication US20220162684
